Reference: US9575076

How the values were obtained:
[1] = target: Chorionic Gonadotropin (CG) (UniProt P01215); assay: i-STAT sandwich cartridge, 0.4 mIU/L TSH plus CG, signal gain over TSH alone; capture T25C, detection 5409
[2] = target: Thyroid Stimulating Hormone (TSH) (UniProt P01215); assay: FRET competition on Alexa488-labelled antigen; competitor BHQ-labelled 414B
[3] = target: Thyroid Stimulating Hormone (TSH) (UniProt P01215); assay: FRET competition on Alexa488-labelled antigen; competitor BHQ-labelled M4
[4] = target: Thyroid Stimulating Hormone (TSH) (UniProt P01215); assay: FRET competition on Alexa488-labelled antigen; competitor BHQ-labelled T25C
[5] = target: Thyroid Stimulating Hormone (TSH) (UniProt P01215); assay: i-STAT sandwich cartridge with TSH; capture beads T25C, detection conjugate TSH Ab 544
[6] = target: Thyroid Stimulating Hormone (TSH) (UniProt P01215); assay: FRET quenching titration, BHQ-10 antibody and Alexa Fluor 488 antigen
[7] = target: Luteinizing Hormone (LH) (UniProt P01215); assay: as above
[8] = target: Follicle Stimulating Hormone (FSH) (UniProt P01215); assay: as above
[9] = target: Chorionic Gonadotropin (CG) (UniProt P01215); assay: as above
[10] = target: Thyroid Stimulating Hormone (TSH) (UniProt P01215); assay: FRET competition on Alexa488-labelled antigen; competitor BHQ-labelled ME130
[11] = target: Thyroid Stimulating Hormone (TSH) (UniProt P01215); assay: i-STAT sandwich cartridge with TSH; capture beads T25C, detection conjugate 414B
[12] = target: Luteinizing Hormone (LH) (UniProt P01215); assay: i-STAT sandwich cartridge, 0.4 mIU/L TSH plus LH, signal gain over TSH alone; capture T25C, detection 5409
[13] = target: Thyroid Stimulating Hormone (TSH) (UniProt P01215); assay: i-STAT sandwich cartridge with TSH; capture beads T25C, detection conjugate ME130
[14] = target: Thyroid Stimulating Hormone (TSH) (UniProt P01215); assay: i-STAT sandwich cartridge with TSH; capture beads T25C, detection conjugate M4
[15] = target: Thyroid Stimulating Hormone (TSH) (UniProt P01215); assay: FRET competition on Alexa488-labelled antigen; competitor BHQ-labelled 5409
[16] = target: Follicle Stimulating Hormone (FSH) (UniProt P01215); assay: i-STAT sandwich cartridge, 0.4 mIU/L TSH plus FSH, signal gain over TSH alone; capture T25C, detection 5409
[17] = target: Thyroid Stimulating Hormone (TSH) (UniProt P01215); assay: FRET competition on Alexa488-labelled antigen; competitor BHQ-labelled TSH Ab 544
[18] = target: Thyroid Stimulating Hormone (TSH) (UniProt P01215); assay: i-STAT sandwich cartridge with TSH; capture beads T25C, detection conjugate 5409
[19] = target: Chorionic Gonadotropin (CG) (UniProt P01215); assay: i-STAT sandwich cartridge, 0.4 mIU/L TSH plus CG, signal gain over TSH alone; capture 414B, detection 5409
[20] = target: Thyroid Stimulating Hormone (TSH) (UniProt P01215); assay: i-STAT sandwich cartridge with TSH; capture beads 414B, detection conjugate TSH Ab 544
[21] = target: Follicle Stimulating Hormone (FSH) (UniProt P01215); assay: i-STAT sandwich cartridge, 0.4 mIU/L TSH plus FSH, signal gain over TSH alone; capture 414B, detection TSH Ab 544
[22] = target: Luteinizing Hormone (LH) (UniProt P01215); assay: i-STAT sandwich cartridge, 0.4 mIU/L TSH plus LH, signal gain over TSH alone; capture 414B, detection TSH Ab 544
[23] = target: Thyroid Stimulating Hormone (TSH) (UniProt P01215); assay: i-STAT sandwich cartridge with TSH; capture beads 414B, detection conjugate 5409
[24] = target: Chorionic Gonadotropin (CG) (UniProt P01215); assay: i-STAT sandwich cartridge, 0.4 mIU/L TSH plus CG, signal gain over TSH alone; capture 414B, detection TSH Ab 544
[25] = target: Thyroid Stimulating Hormone (TSH) (UniProt P01215); assay: i-STAT sandwich cartridge with TSH; capture beads 414B, detection conjugate M4
[26] = target: Luteinizing Hormone (LH) (UniProt P01215); assay: i-STAT sandwich cartridge, 0.4 mIU/L TSH plus LH, signal gain over TSH alone; capture 414B, detection 5409
[27] = target: Follicle Stimulating Hormone (FSH) (UniProt P01215); assay: i-STAT sandwich cartridge, 0.4 mIU/L TSH plus FSH, signal gain over TSH alone; capture 414B, detection 5409
[28] = target: Thyroid Stimulating Hormone (TSH) (UniProt P01215); assay: i-STAT sandwich cartridge with TSH; capture beads M4, detection conjugate 5409
[29] = target: Thyroid Stimulating Hormone (TSH) (UniProt P01215); assay: i-STAT sandwich cartridge with TSH; capture beads M4, detection conjugate T25C
[30] = target: Thyroid Stimulating Hormone (TSH) (UniProt P01215); assay: i-STAT sandwich cartridge with TSH; capture beads M4, detection conjugate ME130
[31] = target: Thyroid Stimulating Hormone (TSH) (UniProt P01215); assay: i-STAT sandwich cartridge with TSH; capture beads M4, detection conjugate TSH Ab 544
[32] = target: Chorionic Gonadotropin (CG) (UniProt P01215); assay: i-STAT sandwich cartridge, 0.4 mIU/L TSH plus CG, signal gain over TSH alone; capture 5409, detection T25C
[33] = target: Thyroid Stimulating Hormone (TSH) (UniProt P01215); assay: i-STAT sandwich cartridge with TSH; capture beads 5409, detection conjugate TSH Ab 544
[34] = target: Luteinizing Hormone (LH) (UniProt P01215); assay: i-STAT sandwich cartridge, 0.4 mIU/L TSH plus LH, signal gain over TSH alone; capture 5409, detection ME130
[35] = target: Thyroid Stimulating Hormone (TSH) (UniProt P01215); assay: i-STAT sandwich cartridge with TSH; capture beads 5409, detection conjugate M4
[36] = target: Luteinizing Hormone (LH) (UniProt P01215); assay: i-STAT sandwich cartridge, 0.4 mIU/L TSH plus LH, signal gain over TSH alone; capture 5409, detection T25C
[37] = target: Thyroid Stimulating Hormone (TSH) (UniProt P01215); assay: i-STAT sandwich cartridge with TSH; capture beads 5409, detection conjugate ME130
[38] = target: Follicle Stimulating Hormone (FSH) (UniProt P01215); assay: i-STAT sandwich cartridge, 0.4 mIU/L TSH plus FSH, signal gain over TSH alone; capture 5409, detection ME130
[39] = target: Follicle Stimulating Hormone (FSH) (UniProt P01215); assay: i-STAT sandwich cartridge, 0.4 mIU/L TSH plus FSH, signal gain over TSH alone; capture 5409, detection T25C
[40] = target: Thyroid Stimulating Hormone (TSH) (UniProt P01215); assay: i-STAT sandwich cartridge with TSH; capture beads 5409, detection conjugate T25C
[41] = target: Chorionic Gonadotropin (CG) (UniProt P01215); assay: i-STAT sandwich cartridge, 0.4 mIU/L TSH plus CG, signal gain over TSH alone; capture 5409, detection ME130
[42] = target: Thyroid Stimulating Hormone (TSH) (UniProt P01215); assay: i-STAT sandwich cartridge with TSH; capture beads ME130, detection conjugate 5409
[43] = target: Thyroid Stimulating Hormone (TSH) (UniProt P01215); assay: i-STAT sandwich cartridge with TSH; capture beads ME130, detection conjugate M4
[44] = target: Thyroid Stimulating Hormone (TSH) (UniProt P01215); assay: i-STAT sandwich cartridge with TSH; capture beads ME130, detection conjugate T25C
[45] = target: Thyroid Stimulating Hormone (TSH) (UniProt P01215); assay: i-STAT sandwich cartridge with TSH; capture beads ME130, detection conjugate TSH Ab 544
[46] = target: Luteinizing Hormone (LH) (UniProt P01215); assay: i-STAT sandwich cartridge, 0.4 mIU/L TSH plus LH, signal gain over TSH alone; capture ME130, detection 5409
[47] = target: Follicle Stimulating Hormone (FSH) (UniProt P01215); assay: i-STAT sandwich cartridge, 0.4 mIU/L TSH plus FSH, signal gain over TSH alone; capture ME130, detection 5409
[48] = target: Chorionic Gonadotropin (CG) (UniProt P01215); assay: i-STAT sandwich cartridge, 0.4 mIU/L TSH plus CG, signal gain over TSH alone; capture ME130, detection 5409

relative fluorescence [2] [normalized]	relative fluorescence [3] [normalized]	relative fluorescence [4] [normalized]	Kd [6] [nM]	Kd [7] [nM]	Kd [8] [nM]	Kd [9] [nM]	relative fluorescence [10] [normalized]	relative fluorescence [15] [normalized]	relative fluorescence [17] [normalized]	Substance	also measured
0.97	0.92	1	0.08	35	300	40	0.97	0.95	0.97	signaling mouse monoclonal antibody Fitzgerald Cat#10-T25C	CG CR (%) [1]: 13.7%; electrochemical current [5]: 0.83 nA; electrochemical current [11]: 0.82 nA; LH CR (%) [12]: 9.89%; electrochemical current [13]: 0.68 nA; electrochemical current [14]: 40.9 nA; FSH CR (%) [16]: 6.25%; electrochemical current [18]: 49.7 nA
1	0.75	0.76	0.04	0.05	0.1	0.05	0.86	0.81	0.83	Seradyn anti-alpha-LH monoclonal antibody Cat#MIT0414B	CG CR (%) [19]: 84.6%; electrochemical current [20]: 10.2 nA; FSH CR (%) [21]: 219%; LH CR (%) [22]: 467%; electrochemical current [23]: 40.3 nA; CG CR (%) [24]: 39.2%; electrochemical current [25]: 41.3 nA; LH CR (%) [26]: 348%; FSH CR (%) [27]: 260%
0.9	1	0.74	0.18	300	210	554	0.76	0.94	0.98	Fitzgerald 10C-CR2151M4 mouse monoclonal antibody	electrochemical current [28]: 20.7 nA; electrochemical current [29]: 22.5 nA; electrochemical current [30]: 39.9 nA; electrochemical current [31]: 0 nA
0.88	0.9	0.78	0.1	1000	1000	500	0.78	1	0.93	TSH capture mouse monoclonal antibody Biospacific Cat#5409 SPTNE-5	CG CR (%) [32]: 0.96%; electrochemical current [33]: 1.41 nA; LH CR (%) [34]: 10.1%; electrochemical current [35]: 15.2 nA; LH CR (%) [36]: 3.76%; electrochemical current [37]: 53.6 nA; FSH CR (%) [38]: 2.43%; FSH CR (%) [39]: 0.65%; electrochemical current [40]: 34.6 nA; CG CR (%) [41]: 0.78%
0.99	0.77	0.88	0.04	54	70	45	1	0.82	0.82	AbCAM ME-130 mouse monoclonal antibody	electrochemical current [42]: 54.7 nA; electrochemical current [43]: 50.5 nA; electrochemical current [44]: -0.1 nA; electrochemical current [45]: 10.8 nA; LH CR (%) [46]: 11.1%; FSH CR (%) [47]: 3.9%; CG CR (%) [48]: 11.8%
